The assay deals with T1, mouse IL-22R (mouse, UniProt Q80XZ4).
T1 chain: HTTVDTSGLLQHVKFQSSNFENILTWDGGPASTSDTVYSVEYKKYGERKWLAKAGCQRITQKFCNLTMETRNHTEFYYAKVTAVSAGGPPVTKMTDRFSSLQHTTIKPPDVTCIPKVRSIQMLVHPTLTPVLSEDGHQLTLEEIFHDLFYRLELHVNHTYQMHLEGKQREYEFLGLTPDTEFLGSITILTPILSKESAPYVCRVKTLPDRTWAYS

Results on one molecule are retold here after patent US20190127459 (published 2019).

B1: 230C9 (antibody, V domains shown)
VH: QVQLVESGGGLVQPGGSLRLSCAASGFTFSSYDMNWVRQAPGKGLEWVSSIYNDASNTAYSDSVKGRFTISRDNSKNTLYLQMNSLRAEDTAVYYCAKVGFSGTYYSESWGQGTLVTVSS
VL: SYELTQPSSVSVALGQTARITCQGGYYAHWYQQKPGQAPVLVIYGQNNRPSGIPERFSGSGAGNTATLTISRAQAEDEADYYCQSGSSSSNAVFGGGTKLTVL
As to B1, the binding result is on record as “no binding”.
